Results published in the nanobody polyreactivity screen of Harvey et al. (2022).

Experiment: yeast display, Sf9 membrane polyspecificity reagent, FACS + sequencing; frameworks hold sequencing errors
Procedure, shortened: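 Nanobodies came from a synthetic yeast display library in Saccharomyces cerevisiae BJ5465, induced with galactose for 36–48 hours and stained for 1 hour at 4 °C with 10% biotinylated, detergent-solubilized Sf9 membrane reagent. Cells were enriched on streptavidin microbeads and then FACS-sorted, with low and high (top ~1%) gates set on anti-HA fluorescence for expression and streptavidin fluorescence for reagent binding. Each polyreactivity label reflects the gate a clone came from. Genes were amplified by colony PCR, sequenced by MiSeq 2 × 250 and filtered by CDR length.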

Sequence | polyreactivity (PSR sort gate)
QVQLLESGGGLVQAGGSLRLSCAASGIIFVRYVMGWYRQAPVKERELVAAINWSGGSTYYADSVKGRFTISRDNAKNTVYLQMNSLKPEDTAVYYCAAGSARDDDYWGQGTQVTVSS | high polyreactivity
QVQLLESGGGLVQAGGSLRLSCAASGNTFYPNAMGWYRPAPGKETELVAAISSSGGSTYYADSVKGRFTISRDNAKNTVYLQMKSLNPEDTAVYYCASEFDYPLSGEYYYWGKGTQVTVSS | high polyreactivity
QVQLLESGGGLVQAGGSLRLSCAASGRILTGYAMGWYRQAPGKERELFSSINWRGGSTYYADSVKGRFTISRDNAKNTVYLQMISLIPEDTAVYYCAARVLVTGTYYTIYDYWGQCTQVTVSS | high polyreactivity
QVQLLESGGGLVQAGGSLRLSCAASGSISVAYAMGWYRQAPGKERELVATIRSGDSTYYADSVKGRFTISRDNAKNTVYLQMNSLKPEDTAVYYCNADATDSYPEKDEHDSWGQGTQVTVSS | low polyreactivity
QVQLLESGGGLVQAGGSLRLSCAASGSTFASYAMGWYRQAPGKETELVAAITRTGSTYYADSVKGRFTISRDNAKNTVYLQMNSLKPEDTAVYYCAKLWIGGYKYYYWGQGTQVTVSS | high polyreactivity
QVQLLESGGGLVQAGGSLRLSCAASGSTFRYYAMGWYRQAPGKERELVAAISKSGGRTYYADSVKGRFTISRDNAKHTVYLQMNSLKPEDTAVYYCAADSKEVRYDYWGQGTQVTVSS | high polyreactivity
QVQLLESGGGLVQAGGSLRLSCAASGSTFYCYTMGWYRQAPGKERELVARISSSGSTNYADSVKGRFTISRDNAKNTVYLQMNSLKPEDTAVYYCNKDWIYRGYDYWGQGTQVTVSS | high polyreactivity
QVQLLESGGGLVQAGGSLRLSCAASGYTFASYAMGWYRQAPGKERELVASISNGGGTNYADSVKGLFRISRDNAKNTVYLQMNSLKPEDTAVYYCAKRYRYYSHSYYYWGQCTQVTVSS | high polyreactivity
QVQLLESGGGLVQAGGSLRLSCAASGYTFTWYAMGWYRQAPGTEREFVAAISIGGDSTYYADSVKGRFTNSRDNAKNTVYLLMNSLIPEDTAVYYCAADTYPRWILLIGELQVETSYDYWGQGTQVTVSS | low polyreactivity
QVQLLESGGGLVQAGGSLRLSCAASRTISYAGTRLWYRQAPGKEREFVAGIGVGSNTNYADSVKGRYTIIRDNAINTVYLQMTSLKPEDTAVYYCAVGGYAPLGRPFWGQGTQVSVSS | low polyreactivity
QVQLLESGGGLVQAGGSLRLSCAASVSIFPKNTMGWYIQAPGKERELVAAISKSGGSTYYADSVKGRFTISRDNAKNTVYLQMNSLKPEDTAVYYCAAALGLRSTSWGRRGGGGDYWGQGTQVTGSS | high polyreactivity
QVQLLESGGGLVQAGGSLRLSCAPSGSTIAWYAMGWYIHAPGKERELVAAITQSGGSTYYADSVKGRFTISRDNEKNTVYLLMIRLKPEDTAVYYCAAYPGYAKYRYDFWGPGTQVTVSS | high polyreactivity
QVQLLESGGGLVQAGGSLRLSCASSGFIFAIYAMGWYRQAPGKERELVAAITSSSSTYADSVKGRFTISRDNAKNTVYLQMNSLKPEDTAVYYCAADTYSYRYSNDYWGQGTQVTVSS | low polyreactivity
QVQLLESGGGLVQAGGSLRLSCASSGRTFRSYGMGWYRQAPGKERELVAVISWRDGSTFYADSVKGRFTISRDNAKNTVYLQMNSLKPEDTAVYYCNARGDVIVTPPKFSFKYEYWGQGTQVTVSS | low polyreactivity
QVQLLESGGGLVQAGGSLRLSCASSGRTFVYYAMGRYRQAPGKERELVAAITFSGGSTYYADSVKGRFTISRDNAKNTVYLQMNSLKPEDTAVYYCAAQYRYSYPLGDYWGQGPQVTVSS | low polyreactivity
QVQLLESGGGLVQAGGSLRLSCMASGSILADRISWYRQAPRIEHELVATLYDGGITYYADSMKGRFTMSRDNAKNTVYLQMNSLRPEDTAVYYCGASFEGYRYHVYCGQGTQVTVSS | low polyreactivity
QVQLLESGGGLVQAGGSLRLTCAASGFIFDQYGMGWYRQAPGKERELVASITSTGSTYYADSVKGRFTISRDNAKNTVYLQMNSLKPEDTAVYYCATDSYDGMDYWGHGTQVTVSS | low polyreactivity
QVQLLESGGGLVQAGGSLRLTCAASGLTFSNYAMGWYRQAPGKERELVADIRSGGNTNYADSVKGRFTISRDNAKNTVYLQMNSLKPEDTAVYYCATDGYRIDVYHPDYRYDYWGQGTQVTVSS | low polyreactivity
QVQLLESGGGLVQAGGSLRLTCAASGRTFYRNAMGWYRPAPGKERELVAAISSGGSTTYADSVKGRFTISRDNAKNTVYLQMNSLKPEDTAVYYCAARSHAGSVSPRLKEYDYWGQGTQVTVSS | low polyreactivity
QVQLLESGGGLVQAGGSLSLTCAASGSTFTRYVMGWYRQAPGTETELVAAISSNGGRTYYADSVKGRFTISRDNAKNTVDLQMTSLKPEDTAVYYCNLVRYAYNASVVYWGQGTQVTVSS | high polyreactivity
QVQLLESGGGLVQAGGTLRLSCAASGRTFYVNAMGWYRQAPGKERELVAAIRRGGSPNYADSVKGRFTISRDNEQNTVYLQMNSLKPEDTAVFYCNASPCGRKQYISPYDYRGQGTQVTVSS | low polyreactivity

Sequence | polyreactivity (PSR sort gate)
QVQLLESGGGLVQAGGTLRLSCSASGGIFVNYAMGWYRQAPGKERELVAAISRSGGSTYYADSVKGRFTISRDNAKNTVYLQLNSLKPEVTAVYYCNAVLQKYRFEYDYWGQGSQVTVSS | high polyreactivity
QVQLLESGGGLVQAGVSLRLSCAASGRIFPYNAMGRYRQAAGKVREFVAAIYYSGGRTYYADSVKGRFTITRDNAKNTVYIQMNSLKPEDTAVYFCDISRYDYTKTEGGYWGQGTQVTVSS | low polyreactivity
QVQLLESGGGLVQSGGSLRLSCAASGFIFYSYAMGGYRQAPGKERELVAAITEDGDSTYYADSVKWRFTISRDNAKNTVYLQMNSLNPEDTAGYYCNTDLTFNGTSGAYDYWGQGTQVTVSS | low polyreactivity
QVQLLESGGRLVQAGGSLRLSCAPSGFIFISYALGWYRQAPGKERELDAAIDWRGGSSTYYADSVKGRFTISRDNAKNTVYFPMISLKPEDTAVYYCAAEGVTWYLWDFYDFYGYWGQGTQVTVSS | high polyreactivity
QVQLLESGGRLVQAGGSLRLSCMASGSILGDRMSWYRQAPGKEHELVATIYDGGITYYADSMKGRFTISRDNAKNTVYLQMNSLRPEDTAVYYCGASFEGYRYHVYCGQGTQVTVSS | low polyreactivity
QVQLLESRGGLVQAGGSLRLSCAASGRTIYTYAMGWYRQAPRTVRELVAAITYRGGNTYYADSVKGRFTISRDNAKYTVYLQMNSLKAEDTAVYDCIRRVAYLSGYSYDYWGQGTQVTVSS | high polyreactivity
QVQLLESVGGLVQAGGSLRLSCAASGRIFGSNAMGWYRQAPGKERELVAAITRGGSTNYADSVKGRFTISRDNAKNTVYLQMNSLKPEDTAVYYCAVRWYRKYNYWGQGTQVTVSS | high polyreactivity
QVQLLESVGGLVQAGGSLRLSCAASGRTFSRYAMGSYRQAPGKERELVATISSSGGTTYYADSVKGRFTISRDNAKNTVYLQMNSLKPEDTAVYYCNAESKKRTHASGYDYWGHGTQVTVSS | low polyreactivity
QVQLLETGGGLVQAGGSLRLSCAASGLIFYYNVMGWYIQAPGKERELVASISYSSTRTYYADSVKGRFTISRDNAKNTVYLQMNSLKPEDTAVYYCNAVIRNSWIRGYWGQGTQVTVSS | low polyreactivity
QVQLLETGGGLVQAGGSLRLSCAPSGSIFDSYAMGWYRQAPGKERELVATINTSGGSTYYADSVKGRFTIHDNAKNTVYLQMNSLKPEDTAVYYCNAGRWDYWQNNFGDYGYWGQGTQVTVSS | low polyreactivity
QVQLLETGGGLVQAGGSLRLSFAASGSIFYRYSMVWYRQAPGKERELVAAISYSGGSTYYADSVKGRFTISRDNAKNTVYLQMNSLKPEDTAVYYCAKDYPPPISDYSRYYGYGYWGQGTQVTVSS | low polyreactivity
QVQLLETGGGLVQAGRSLRLSCAASGFIFRANAMGWYRQAPGNERELVATISRSGGSTSYADSVKGRFTISRDNAKNTVYLQMNSLKPEDTAVYYCNKRTPYLRPILDYWGQGSQVTVSS | high polyreactivity
QVQLLETGGGLVQAGVSLRLSSAASGRTFWTNGMGWYRQAPGKERELVASISTSGGRTYYADSVKGRFTISRDNSKNTVYLQMNSLKPEDTAVYYCAARALSHGARYDYWGQGTQVNVSS | high polyreactivity
QVQLQDSGGGLVQAGGSLRLSCAASGTISDRAGMGWYRQAPAQNAIVATIDRGTNTNYADSVKGRFTISRDNAKNTVYLQMNSLKPEDTAVYNCAADGRYYIYLDYWGQGTQVTVSS | low polyreactivity
QVQLQDSGGGLVQAGGSLRLSCAASGYIFGSGSMGWFRQAPGKERELVATINNGSSTYYADSVKGRFTISRDNAINTVYLQMNSLKPEDTAVYYCAAVRIRPLRYYYWGQGTQVTVSS | high polyreactivity
QVQLQDSGVGLVQAGGSLRLSCAASGTISYRYRMGSYRQAPRKELELVAGISFGSITYNADSVKGRFTISRDNAKNTVYLQMNSLKPEDIAVYYCAVYQKSYRFFPYWGQGTQVTVSS | high polyreactivity
QVQLQECGCGLVQAGCSLRLSCAASGTFSNSLKWLYCQAPGKEREFVATIGVGGSTNYADSVKGRFTISRDNAKNTVYLQMNSLKPEDTAVYYCAARLDTVTDYYYWGQGTQVTVSS | low polyreactivity
QVQLQECGGALVQAGGSLRLSCAASGTFSNSEKWLYCQAPGKERELVSTIGVGGSTNYADSVKGRFTISRDNAKNTVYLQLNSLKPEDTAVYHCAAYGAASYFHYYRGQGTQVTVSS | low polyreactivity
QVQLQECGGGLVQAGGSLRLSCAARGNIFDADIMGWYRQAPGKESELLASVTDGGSTNYADSVKGRFTISRDNAKNTVYLQMNSLKPEDSAVYYCAAIVYPDILTYFDYDYDYFYWGQGTQVTVGS | low polyreactivity
QVQLQEGGGGLVQAGGSLRLSCAASGYISYGDDMGWYRQAPGEERELVASIGLDATTNYADSVKGRFTISRDNAKITVYLQMNSLKPEDTAVYYCAADVGSGVLCGYWGQGTQMTVSS | high polyreactivity
